In article PMC9352680, “A comprehensive thermodynamic model for RNA binding by the Saccharomyces cerevisiae Pumilio protein PUF4”:

Biological target: T1, PUF4 RNA-binding domain (Saccharomyces cerevisiae, UniProt P25339 537-888)
T1 sequence: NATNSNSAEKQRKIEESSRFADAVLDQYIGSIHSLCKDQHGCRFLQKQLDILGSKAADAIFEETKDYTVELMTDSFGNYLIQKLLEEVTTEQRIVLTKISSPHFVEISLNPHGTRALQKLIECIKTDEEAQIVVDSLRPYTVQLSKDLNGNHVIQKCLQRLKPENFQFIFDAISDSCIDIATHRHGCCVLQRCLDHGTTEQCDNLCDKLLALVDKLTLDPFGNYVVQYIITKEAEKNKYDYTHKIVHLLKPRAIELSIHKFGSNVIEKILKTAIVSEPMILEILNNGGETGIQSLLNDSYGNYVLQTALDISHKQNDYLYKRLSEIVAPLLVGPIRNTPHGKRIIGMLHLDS
Test: Mg; RNA-MaP; 20 mM Na-HEPES pH 7.4, 30 mM KOAc, 0.75 mM MgCl2, 0.1% Tween-20, 5% glycerol, 0.1 mg/mL BSA, 2 mM DTT; 25 C; 0.0125-409.6 nM protein
Settings: tags: N-His6-TEV cleaved; C-SNAP kept, Cy3B-labelled; label: tethered on chip by stalled RNA polymerase

| Binder | Kd |
| --- | --- |
| Ie_S4_P4E.1_K4.1_C4.1_H4.1_[+1CTCTC]_A4.1_F4.1_T4.1 (ssRNA) RNA: UUUGACAACUGAUCGUUCUUUCUUCUCUCGUAUAUUAUUCUUUCUCGAUCAGUUGUCUUU | 5.7 nM |
| Ie_S4_P4E.1_K4.1_C4.1_H4.1_[+2C]_A4.1_F4.1_T4.1 (ssRNA) RNA: UUUGACAACUGAUCGUUCUUUCUUGCUAUAUUAUUCUUUCUCGAUCAGUUGUCUUU | 148 nM |
| Ie_S4_P4E.1_K4.1_C4.1_H4.1_[+2TT]_A4.1_F4.1_T4.1 (ssRNA) RNA: UUUGACAACUGAUCGUUCUUUCUUGUUUAUAUUAUUCUUUCUCGAUCAGUUGUCUUU | 16.8 nM |
| Ib_S2_P3E.1_K3.1_C3.1_H3.1_[G2C]_A3.1_[A6G]_F3.1_T3.1 (ssRNA) RNA: UUUGAUUAAUAUGAUAUCGUUCUUUCUUCUAUGUAUUCUUUCUCGAUAUCAUAUUAAUCUUU | 87.4 nM |
| Ie_S4_P4E.1_K4.1_C4.1_H4.1_[+2CTC]_A4.1_F4.1_T4.1 (ssRNA) RNA: UUUGACAACUGAUCGUUCUUUCUUGCUCUAUAUUAUUCUUUCUCGAUCAGUUGUCUUU | 108 nM |
| Ie_S4_P4E.1_K4.1_C4.1_H4.1_[+2TCC]_A4.1_F4.1_T4.1 (ssRNA) RNA: UUUGACAACUGAUCGUUCUUUCUUGUCCUAUAUUAUUCUUUCUCGAUCAGUUGUCUUU | 8.71 nM |
| Ie_S4_P4E.1_K4.1_C4.1_H4.1_[+2CCTC]_A4.1_F4.1_T4.1 (ssRNA) RNA: UUUGACAACUGAUCGUUCUUUCUUGCCUCUAUAUUAUUCUUUCUCGAUCAGUUGUCUUU | 105 nM |
| Ie_S4_P4E.1_K4.1_C4.1_H4.1_[+2TTCC]_A4.1_F4.1_T4.1 (ssRNA) RNA: UUUGACAACUGAUCGUUCUUUCUUGUUCCUAUAUUAUUCUUUCUCGAUCAGUUGUCUUU | 23.9 nM |
| Ie_S4_P4E.1_K4.1_C4.1_H4.1_[+2CCTCT]_A4.1_F4.1_T4.1 (ssRNA) RNA: UUUGACAACUGAUCGUUCUUUCUUGCCUCUUAUAUUAUUCUUUCUCGAUCAGUUGUCUUU | 118 nM |
| Ie_S4_P4E.1_K4.1_C4.1_H4.1_[+3CT]_A4.1_F4.1_T4.1 (ssRNA) RNA: UUUGACAACUGAUCGUUCUUUCUUGUCUAUAUUAUUCUUUCUCGAUCAGUUGUCUUU | 31.2 nM |
| Ie_S4_P4E.1_K4.1_C4.1_H4.1_[+3CCC]_A4.1_F4.1_T4.1 (ssRNA) RNA: UUUGACAACUGAUCGUUCUUUCUUGUCCCAUAUUAUUCUUUCUCGAUCAGUUGUCUUU | 15 nM |
| Ie_S4_P4E.1_K4.1_C4.1_H4.1_[+3TCC]_A4.1_F4.1_T4.1 (ssRNA) RNA: UUUGACAACUGAUCGUUCUUUCUUGUUCCAUAUUAUUCUUUCUCGAUCAGUUGUCUUU | 7.68 nM |
| Ie_S4_P4E.1_K4.1_C4.1_H4.1_[+3TCT]_A4.1_F4.1_T4.1 (ssRNA) RNA: UUUGACAACUGAUCGUUCUUUCUUGUUCUAUAUUAUUCUUUCUCGAUCAGUUGUCUUU | 6.36 nM |
| Ie_S4_P4E.1_K4.1_C4.1_H4.1_[+3TTT]_A4.1_F4.1_T4.1 (ssRNA) RNA: UUUGACAACUGAUCGUUCUUUCUUGUUUUAUAUUAUUCUUUCUCGAUCAGUUGUCUUU | 12.7 nM |
| Ib_S2_P3E.1_K3.1_C3.1_H3.1_[G2C]_A3.1_[A6C]_F3.1_T3.1 (ssRNA) RNA: UUUGAUUAAUAUGAUAUCGUUCUUUCUUCUAUCUAUUCUUUCUCGAUAUCAUAUUAAUCUUU | > 2300 nM |
| Ie_S4_P4E.1_K4.1_C4.1_H4.1_[+3CCTC]_A4.1_F4.1_T4.1 (ssRNA) RNA: UUUGACAACUGAUCGUUCUUUCUUGUCCUCAUAUUAUUCUUUCUCGAUCAGUUGUCUUU | 66.1 nM |
| Ie_S4_P4E.1_K4.1_C4.1_H4.1_[+3TTCCT]_A4.1_F4.1_T4.1 (ssRNA) RNA: UUUGACAACUGAUCGUUCUUUCUUGUUUCCUAUAUUAUUCUUUCUCGAUCAGUUGUCUUU | 22.7 nM |
| Ie_S4_P4E.1_K4.1_C4.1_H4.1_[+3CCCTT]_A4.1_F4.1_T4.1 (ssRNA) RNA: UUUGACAACUGAUCGUUCUUUCUUGUCCCUUAUAUUAUUCUUUCUCGAUCAGUUGUCUUU | 51.6 nM |
| Ie_S4_P4E.1_K4.1_C4.1_H4.1_[+4T]_A4.1_F4.1_T4.1 (ssRNA) RNA: UUUGACAACUGAUCGUUCUUUCUUGUAUUAUUAUUCUUUCUCGAUCAGUUGUCUUU | 4.34 nM |
| Ie_S4_P4E.1_K4.1_C4.1_H4.1_[+4CT]_A4.1_F4.1_T4.1 (ssRNA) RNA: UUUGACAACUGAUCGUUCUUUCUUGUACUUAUUAUUCUUUCUCGAUCAGUUGUCUUU | 4.23 nM |
| Ie_S4_P4E.1_K4.1_C4.1_H4.1_[+4TC]_A4.1_F4.1_T4.1 (ssRNA) RNA: UUUGACAACUGAUCGUUCUUUCUUGUAUCUAUUAUUCUUUCUCGAUCAGUUGUCUUU | 6.67 nM |
| Ie_S4_P4E.1_K4.1_C4.1_H4.1_[+4CTC]_A4.1_F4.1_T4.1 (ssRNA) RNA: UUUGACAACUGAUCGUUCUUUCUUGUACUCUAUUAUUCUUUCUCGAUCAGUUGUCUUU | 1.44 nM |
| Ie_S4_P5E.1_K5.1_C5.1_H5.1_A5.1_[+5CC]_F5.1_T5.1 (ssRNA) RNA: UUUGACAACUGAUCGUUCUUUCUUGUAUCCUAUUAUUCUUUCUCGAUCAGUUGUCUUU | 3.27 nM |
| Ie_S4_P5E.1_K5.1_C5.1_H5.1_A5.1_[+6CT]_F5.1_T5.1 (ssRNA) RNA: UUUGACAACUGAUCGUUCUUUCUUGUAUUCUAUUAUUCUUUCUCGAUCAGUUGUCUUU | 2.21 nM |

| Binder | Kd |
| --- | --- |
| Ie_S4_P4E.1_K4.1_C4.1_H4.1_A4.1_[+5TTT]_F4.1_T4.1 (ssRNA) RNA: UUUGACAACUGAUCGUUCUUUCUUGUAUUUUAUUAUUCUUUCUCGAUCAGUUGUCUUU | 1.72 nM |
| Ib_S2_P3E.1_K3.1_C3.1_H3.1_[G2T]_A3.1_[A6G]_F3.1_T3.1 (ssRNA) RNA: UUUGAUUAAUAUGAUAUCGUUCUUUCUUUUAUGUAUUCUUUCUCGAUAUCAUAUUAAUCUUU | 189 nM |
| Ie_S4_P4E.1_K4.1_C4.1_H4.1_[+4TCTC]_A4.1_F4.1_T4.1 (ssRNA) RNA: UUUGACAACUGAUCGUUCUUUCUUGUAUCUCUAUUAUUCUUUCUCGAUCAGUUGUCUUU | 4.78 nM |
| Ie_S4_P4E.1_K4.1_C4.1_H4.1_[+4CTCTC]_A4.1_F4.1_T4.1 (ssRNA) RNA: UUUGACAACUGAUCGUUCUUUCUUGUACUCUCUAUUAUUCUUUCUCGAUCAGUUGUCUUU | 6.67 nM |
| Ie_S4_P4E.1_K4.1_C4.1_H4.1_A4.1_[+5CC]_F4.1_T4.1 (ssRNA) RNA: UUUGACAACUGAUCGUUCUUUCUUGUAUCCAUUAUUCUUUCUCGAUCAGUUGUCUUU | 13.5 nM |
| Ie_S4_P4E.1_K4.1_C4.1_H4.1_A4.1_[+5TCC]_F4.1_T4.1 (ssRNA) RNA: UUUGACAACUGAUCGUUCUUUCUUGUAUUCCAUUAUUCUUUCUCGAUCAGUUGUCUUU | 34.1 nM |
| Ie_S4_P4E.1_K4.1_C4.1_H4.1_A4.1_[+5TTC]_F4.1_T4.1 (ssRNA) RNA: UUUGACAACUGAUCGUUCUUUCUUGUAUUUCAUUAUUCUUUCUCGAUCAGUUGUCUUU | 31.3 nM |
| Ie_S4_P4E.1_K4.1_C4.1_H4.1_A4.1_[+5TCTC]_F4.1_T4.1 (ssRNA) RNA: UUUGACAACUGAUCGUUCUUUCUUGUAUUCUCAUUAUUCUUUCUCGAUCAGUUGUCUUU | 35.8 nM |
| Ie_S4_P4E.1_K4.1_C4.1_H4.1_A4.1_[+5CCTC]_F4.1_T4.1 (ssRNA) RNA: UUUGACAACUGAUCGUUCUUUCUUGUAUCCUCAUUAUUCUUUCUCGAUCAGUUGUCUUU | 43.3 nM |
| Ie_S4_P4E.1_K4.1_C4.1_H4.1_A4.1_[+5TTCC]_F4.1_T4.1 (ssRNA) RNA: UUUGACAACUGAUCGUUCUUUCUUGUAUUUCCAUUAUUCUUUCUCGAUCAGUUGUCUUU | 54 nM |
| Ie_S4_P5E.1_K5.1_C5.1_H5.1_A5.1_[+5CCC]_F5.1_T5.1 (ssRNA) RNA: UUUGACAACUGAUCGUUCUUUCUUGUAUCCCUAUUAUUCUUUCUCGAUCAGUUGUCUUU | 7.89 nM |
| Ie_S4_P4E.1_K4.1_C4.1_H4.1_A4.1_[+5CTCTC]_F4.1_T4.1 (ssRNA) RNA: UUUGACAACUGAUCGUUCUUUCUUGUAUCUCUCAUUAUUCUUUCUCGAUCAGUUGUCUUU | 42.8 nM |
| Ib_S2_P3E.1_K3.1_C3.1_H3.1_[G2A]_A3.1_[A6G]_F3.1_T3.1 (ssRNA) RNA: UUUGAUUAAUAUGAUAUCGUUCUUUCUUAUAUGUAUUCUUUCUCGAUAUCAUAUUAAUCUUU | 76.2 nM |
| Ie_S4_P5E.1_K5.1_C5.1_H5.1_A5.1_[+5TCTC]_F5.1_T5.1 (ssRNA) RNA: UUUGACAACUGAUCGUUCUUUCUUGUAUUCUCUAUUAUUCUUUCUCGAUCAGUUGUCUUU | 9.69 nM |
| Ie_S4_P4E.1_K4.1_C4.1_H4.1_A4.1_[+5CCTCT]_F4.1_T4.1 (ssRNA) RNA: UUUGACAACUGAUCGUUCUUUCUUGUAUCCUCUAUUAUUCUUUCUCGAUCAGUUGUCUUU | 10 nM |
| Ie_S4_P5E.1_K5.1_C5.1_H5.1_A5.1_[+5TTCC]_F5.1_T5.1 (ssRNA) RNA: UUUGACAACUGAUCGUUCUUUCUUGUAUUUCCUAUUAUUCUUUCUCGAUCAGUUGUCUUU | 9.15 nM |
| Ie_S4_P4E.1_K4.1_C4.1_H4.1_A4.1_[+6TC]_F4.1_T4.1 (ssRNA) RNA: UUUGACAACUGAUCGUUCUUUCUUGUAUAUCUUAUUCUUUCUCGAUCAGUUGUCUUU | 4.82 nM |
| Ie_S4_P4E.1_K4.1_C4.1_H4.1_A4.1_[+6CCT]_F4.1_T4.1 (ssRNA) RNA: UUUGACAACUGAUCGUUCUUUCUUGUAUACCUUUAUUCUUUCUCGAUCAGUUGUCUUU | 11.2 nM |
| Ie_S4_P4E.1_K4.1_C4.1_H4.1_A4.1_[+6CTC]_F4.1_T4.1 (ssRNA) RNA: UUUGACAACUGAUCGUUCUUUCUUGUAUACUCUUAUUCUUUCUCGAUCAGUUGUCUUU | 10.3 nM |
| Ie_S4_P4E.1_K4.1_C4.1_H4.1_A4.1_[+6TCT]_F4.1_T4.1 (ssRNA) RNA: UUUGACAACUGAUCGUUCUUUCUUGUAUAUCUUUAUUCUUUCUCGAUCAGUUGUCUUU | 8.73 nM |
| Ie_S4_P4E.1_K4.1_C4.1_H4.1_A4.1_[+6TTT]_F4.1_T4.1 (ssRNA) RNA: UUUGACAACUGAUCGUUCUUUCUUGUAUAUUUUUAUUCUUUCUCGAUCAGUUGUCUUU | 4.94 nM |
| Ie_S4_P4E.1_K4.1_C4.1_H4.1_A4.1_[+6CTCT]_F4.1_T4.1 (ssRNA) RNA: UUUGACAACUGAUCGUUCUUUCUUGUAUACUCUUUAUUCUUUCUCGAUCAGUUGUCUUU | 12 nM |
| Ie_S4_P4E.1_K4.1_C4.1_H4.1_A4.1_[+6TCTC]_F4.1_T4.1 (ssRNA) RNA: UUUGACAACUGAUCGUUCUUUCUUGUAUAUCUCUUAUUCUUUCUCGAUCAGUUGUCUUU | 15.4 nM |
